Where a chain is given by its changes, count along the chain named.

One test deals with T1, human MuSK (human, UniProt O15146 24-495).
T1 construct: Recombinant protein coated on ELISA plates (R&D Systems cat. 10189-MK) or on the Biacore chip; also called human muscle-specific tyrosine protein kinase; full length human MuSK
T1 sequence: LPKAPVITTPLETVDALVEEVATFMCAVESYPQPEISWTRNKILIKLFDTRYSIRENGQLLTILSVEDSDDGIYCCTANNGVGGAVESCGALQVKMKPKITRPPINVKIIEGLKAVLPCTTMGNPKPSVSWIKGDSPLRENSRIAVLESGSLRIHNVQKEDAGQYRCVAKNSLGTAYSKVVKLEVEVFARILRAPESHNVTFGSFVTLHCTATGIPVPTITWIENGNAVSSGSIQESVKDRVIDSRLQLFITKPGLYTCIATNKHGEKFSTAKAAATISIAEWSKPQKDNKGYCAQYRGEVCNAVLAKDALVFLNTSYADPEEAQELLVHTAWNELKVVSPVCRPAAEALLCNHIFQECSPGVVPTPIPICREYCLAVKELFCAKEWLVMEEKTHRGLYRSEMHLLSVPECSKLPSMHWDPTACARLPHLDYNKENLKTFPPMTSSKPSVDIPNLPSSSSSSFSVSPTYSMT
Briefly: Biacore T200, MuSK on chip (200RU), 22.2 nM Fab, dissociation pH 5.5. The method in brief: (§1)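 Surface plasmon resonance was run with both human and mouse MuSK immobilized on the sensor chip. Fab association was always performed at pH 7.4 before the dissociation phase. Kinetic parameters were calculated from the binding curves.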
(In general: In SPR one partner is held on a chip, and binding of the other changes the refractive index at the surface.)

Another test addresses T2, mouse MuSK (mouse, UniProt Q61006 22-494, limits assumed).
T2 construct: Coated on ELISA plates or on the Biacore chip; also called full length mouse MuSK; mouse MuSK (in house produced in HEK293 cells)
T2 sequence (looked up): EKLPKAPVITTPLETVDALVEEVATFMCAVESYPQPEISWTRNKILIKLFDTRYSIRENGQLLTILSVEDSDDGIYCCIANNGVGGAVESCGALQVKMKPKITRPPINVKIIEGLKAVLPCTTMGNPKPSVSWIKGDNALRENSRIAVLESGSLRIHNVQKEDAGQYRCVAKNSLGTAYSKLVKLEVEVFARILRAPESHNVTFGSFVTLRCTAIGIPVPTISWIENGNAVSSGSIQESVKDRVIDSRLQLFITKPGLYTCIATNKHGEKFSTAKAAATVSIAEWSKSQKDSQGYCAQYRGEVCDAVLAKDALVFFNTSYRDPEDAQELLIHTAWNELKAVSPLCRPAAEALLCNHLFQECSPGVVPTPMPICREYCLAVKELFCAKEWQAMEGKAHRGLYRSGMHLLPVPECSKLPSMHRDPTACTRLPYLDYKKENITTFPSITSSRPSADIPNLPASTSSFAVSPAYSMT
The description is as above. In outline: as §1

Test [1] has as its target T3, mFz: Fz domain and C-terminal flanking sequence of mouse MuSK (D307 to T494) with C-terminal Avi- and … (mouse, UniProt Q61006 307-494, limits assumed, biotinylated in vitro using the BirA enzyme).
T3 construct: also called mouse Fz; not shown: Avi- and His6-tags
T3 sequence (looked up): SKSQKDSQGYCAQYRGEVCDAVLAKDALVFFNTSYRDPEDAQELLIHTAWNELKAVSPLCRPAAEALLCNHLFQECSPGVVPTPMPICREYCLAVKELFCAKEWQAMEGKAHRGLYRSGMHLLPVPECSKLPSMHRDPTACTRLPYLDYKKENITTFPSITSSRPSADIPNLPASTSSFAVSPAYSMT
Briefly: bead-binding assay, Fab format: biotinylated antigen on streptavidin beads, flow cytometry, 1:1 fit; average ± s.d., n=3. A general note: Flow cytometry measures light scatter and fluorescence of single cells or particles in a stream.

For test [2], the target named is T4, hECD: full-length extracellular region of human MuSK (E22 to T495) with C-terminal Avi- and His6-tags (human, UniProt O15146 22-495, biotinylated in vitro using the BirA enzyme).
T4 construct: also called human ECD; not shown: Avi- and His6-tags
T4 sequence: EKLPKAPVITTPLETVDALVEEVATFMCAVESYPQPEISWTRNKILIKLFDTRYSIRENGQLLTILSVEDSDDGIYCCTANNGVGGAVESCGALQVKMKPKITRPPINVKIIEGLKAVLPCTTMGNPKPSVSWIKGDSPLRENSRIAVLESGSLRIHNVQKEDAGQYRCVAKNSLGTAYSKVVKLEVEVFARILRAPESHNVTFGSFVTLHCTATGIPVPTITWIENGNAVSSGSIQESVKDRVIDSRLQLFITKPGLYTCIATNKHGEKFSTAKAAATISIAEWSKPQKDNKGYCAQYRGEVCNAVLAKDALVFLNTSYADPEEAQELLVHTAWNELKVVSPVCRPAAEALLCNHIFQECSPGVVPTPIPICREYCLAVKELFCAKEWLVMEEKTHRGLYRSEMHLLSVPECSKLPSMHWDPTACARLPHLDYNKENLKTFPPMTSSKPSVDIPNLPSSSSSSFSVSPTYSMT
Described as above.

The target of test [3] is T5, mECD: full-length extracellular region of mouse MuSK (E22 to T494) with C-terminal Avi- and His6-tags (mouse, UniProt Q61006 22-494, biotinylated in vitro using the BirA enzyme).
T5 construct: range 22-494; also called mouse ECD; not shown: Avi- and His6-tags
T5 sequence (looked up): T2 sequence (looked up)
Described as above.

Test [4] concerns the target T6, hFz: Fz domain and C-terminal flanking sequence of human MuSK (K314-T495) with C-terminal Avi- and His6-tags (human, UniProt O15146 314-495, biotinylated in vitro using the BirA enzyme).
T6 construct: also called human Fz; not shown: Avi- and His6-tags
T6 sequence: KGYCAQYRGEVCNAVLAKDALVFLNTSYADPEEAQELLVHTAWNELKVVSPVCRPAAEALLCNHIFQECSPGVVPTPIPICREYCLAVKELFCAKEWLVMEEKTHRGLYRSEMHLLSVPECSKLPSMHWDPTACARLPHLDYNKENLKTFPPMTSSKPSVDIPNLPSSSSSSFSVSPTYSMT
Described as above.

B1: X2 Fab (Fab, V domains shown)
VH: EVQLVESGGGLVQPGGSLRLSCAASGFTVSSSSIHWVRQAPGKGLEWVASISSSYGSTSYADSVKGRFTISADTSKNTAYLQMNSLRAEDTAVYYCARSEGDRYVSGYMGMDYWGQGTLVTVSS
VL: DIQMTQSPSSLSASVGDRVTITCRASQSVSSAVAWYQQKPGKAPKLLIYSASSLYSGVPSRFSGSRSGTDFTLTISSLQPEDFATYYCQQSGVWLITFGQGTKVEIK
notes: Fab format
On to B1, for which the koff (as a rule, a measure of how fast the partners let go of each other) worked out at 0.00034 s⁻¹ in the test with human MuSK and 0.00051 s⁻¹ in the test with mouse MuSK. Besides, the equilibrium dissociation constant (Kd) (as a rule, the equilibrium constant for the complex coming apart) in test [1] was found to be 0.45 nM; in test [2] it was 0.86 nM; in test [3], 0.7 nM; in test [4], 0.53 nM.

B2: X3 Fab (Fab, V domains shown)
VH: EVQLVESGGGLVQPGGSLRLSCAASGFTISSSSIHWVRQAPGKGLEWVASISSSSGYTYYADSVKGRFTISADTSKNTAYLQMNSLRAEDTAVYYCARSWYEMWMSGYFGFDYWGQGTLVTVSS
VL: B1 VL with G92S, V93S, W94S
notes: Fab format
Turning to B2, the figures for the koff in the test with human MuSK and with mouse MuSK were 0.00225 s⁻¹ and 0.0246 s⁻¹, respectively. Moreover, the dissociation constant Kd in test [1] is 0.29 nM; in test [2], 0.16 nM; in test [3] it was 0.4 nM; in test [4], 0.11 nM.

The values are drawn from patent US20230151091A1 (NEW YORK UNIVERSITY, published 2023).
